Sequences and labels used below:
B1: Vesicle transport through interaction with t-SNAREs homolog 1B (Homo sapiens), Q9UEU0 (parent)
chain: MASSAASSEHFEKLHEIFRGLHEDLQGVPERLLGTAGTEEKKKLIRDFDEKQQEANETLAEMEEELRYAPLSFRNPMMSKLRNYRKDLAKLHREVRSTPLTATPGGRGDMKYGIYAVENEHMNRLQSQRAMLLQGTESLNRATQSIERSHRIATETDQIGSEIIEELGEQRDQLERTKSRLVNTSENLSKSRKILRSMSRKVTTNKLLLSIIILLELAILGGLVYYKFFRSH
partner: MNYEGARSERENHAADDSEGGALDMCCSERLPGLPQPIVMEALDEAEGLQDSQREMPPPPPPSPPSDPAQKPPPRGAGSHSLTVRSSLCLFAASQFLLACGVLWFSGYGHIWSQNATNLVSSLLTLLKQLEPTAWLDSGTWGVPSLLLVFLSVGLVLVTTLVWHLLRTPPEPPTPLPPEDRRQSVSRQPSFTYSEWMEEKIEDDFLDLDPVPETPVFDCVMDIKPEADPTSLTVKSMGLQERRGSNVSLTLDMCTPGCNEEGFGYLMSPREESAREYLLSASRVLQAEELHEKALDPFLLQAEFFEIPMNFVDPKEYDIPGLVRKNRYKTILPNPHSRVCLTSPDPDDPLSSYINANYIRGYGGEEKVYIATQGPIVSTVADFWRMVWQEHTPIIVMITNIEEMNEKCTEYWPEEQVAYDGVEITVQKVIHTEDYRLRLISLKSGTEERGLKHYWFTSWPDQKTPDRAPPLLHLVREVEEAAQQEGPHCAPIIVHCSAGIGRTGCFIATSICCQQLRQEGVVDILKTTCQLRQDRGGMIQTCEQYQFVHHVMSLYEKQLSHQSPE
B2: Cyclin-dependent kinase 4 (Homo sapiens), P11802 (parent)
chain: MATSRYEPVAEIGVGAYGTVYKARDPHSGHFVALKSVRVPNGGGGGGGLPISTVREVALLRRLEAFEHPNVVRLMDVCATSRTDREIKVTLVFEHVDQDLRTYLDKAPPPGLPAETIKDLMRQFLRGLDFLHANCIVHRDLKPENILVTSGGTVKLADFGLARIYSYQMALTPVVVTLWYRAPEVLLQSTYATPVDMWSVGCIFAEMFRRKPLFCGNSEADQLGKIFDLIGLPPEDDWPRDVSLPRGAFPPRGPRPVQSVVPEMEESGAQLLLEMLTFNPHKRISAFRALQHSYLHKDEGNPE

Variants of B1 are the subject of the first test. Conditions: with ptn5_human PTPN5, P54829.
On to R176H, for which the “effect of a mutation on the interaction” value was “with no effect”.

In another test the parent is B2. Conditions: with ccnd1_human CCND1, P24385.
Chain of ccnd1_human CCND1, P24385 (P24385 whole entry): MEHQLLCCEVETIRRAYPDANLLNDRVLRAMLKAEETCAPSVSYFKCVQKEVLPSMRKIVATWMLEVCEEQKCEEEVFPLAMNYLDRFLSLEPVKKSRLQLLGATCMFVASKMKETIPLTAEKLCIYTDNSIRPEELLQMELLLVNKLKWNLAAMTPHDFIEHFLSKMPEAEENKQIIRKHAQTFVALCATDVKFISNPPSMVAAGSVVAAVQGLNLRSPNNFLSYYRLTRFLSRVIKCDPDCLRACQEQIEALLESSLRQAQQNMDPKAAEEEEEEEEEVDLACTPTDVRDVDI
In the case of N41S, the “effect of a mutation on the interaction” value is reported as “with no effect”.
Regarding S52N, the “effect of a mutation on the interaction” value is “with no effect”.

The variants in a further test derive from B2. Conditions: with cdn2b_human CDKN2B.
With S52N, the “effect of a mutation on the interaction” value is on record as “with no effect”.
As for R209C, the “effect of a mutation on the interaction” value was “with no effect”.

The variants in a further test derive from B2. Conditions: with ccnd3_human CCND3, P30281.
Chain of ccnd3_human CCND3, P30281 (P30281 whole entry): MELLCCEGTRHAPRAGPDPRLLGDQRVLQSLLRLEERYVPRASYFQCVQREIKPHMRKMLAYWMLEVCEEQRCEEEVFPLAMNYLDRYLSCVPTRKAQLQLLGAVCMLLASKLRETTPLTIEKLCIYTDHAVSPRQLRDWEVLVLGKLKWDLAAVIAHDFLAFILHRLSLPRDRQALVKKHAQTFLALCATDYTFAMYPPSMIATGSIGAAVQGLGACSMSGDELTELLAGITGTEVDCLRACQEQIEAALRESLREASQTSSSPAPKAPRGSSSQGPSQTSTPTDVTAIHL
As for S52N, the “effect of a mutation on the interaction” value is “with no effect”.
On the same count and under the same terms, the entry for R209C is “with no effect”.

Variants of B2 are the subject of a further test. Conditions: with cdn2c_human CDKN2C.
Turning to S52N, the “effect of a mutation on the interaction” value is listed as “with no effect”.
As for R209C, the “effect of a mutation on the interaction” value is given as “with no effect”.

In a further test the parent is B2. Conditions: with ccnd1_human CCND1, P24385. This is another data set of the same source.
Consider G43E, for which the “effect of a mutation on the interaction” value is “with no effect”.

The next test covers variants of B2. Conditions: with ccnd2_human CCND2, P30279.
Chain of ccnd2_human CCND2, P30279 (P30279 whole entry): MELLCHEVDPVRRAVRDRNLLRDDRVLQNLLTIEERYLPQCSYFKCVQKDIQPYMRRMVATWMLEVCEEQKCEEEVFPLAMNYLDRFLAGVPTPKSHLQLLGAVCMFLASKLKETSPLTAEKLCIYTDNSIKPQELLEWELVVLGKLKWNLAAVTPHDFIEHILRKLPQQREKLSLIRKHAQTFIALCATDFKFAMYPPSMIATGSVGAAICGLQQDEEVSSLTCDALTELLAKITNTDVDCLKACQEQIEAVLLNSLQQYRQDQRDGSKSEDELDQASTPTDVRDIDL
Consider G43E, for which the “effect of a mutation on the interaction” value is “with no effect”.

The variants in another test derive from B2. Conditions: with cdn2c_human CDKN2C. This is another data set of the same source.
On to G43E, for which the “effect of a mutation on the interaction” value is listed as “with no effect”.

Variants of B2 are the subject of a further test. Conditions: with ccnd3_human CCND3, P30281. This is another data set of the same source.
On to G43E, for which the “effect of a mutation on the interaction” value is “with no effect”.

The values are drawn from IntAct's records for PubMed 31515488.
